Results on five molecules are retold here after patent US12729239B2, “Anti-CEACAM5 antibodies and conjugates and uses thereof” (Merck Patent GmbH, priority 2020, dated 2026).

The conditions of series [1]: in vivo; cited from earlier work.
For series [2] the following is noted: in vivo; cited from earlier work. The source holds these as a separate data set.
A further series concerns MDA-MB-231. Kind of series: Viability assay (Cell Titer-Glo), MDA-MB-231. The series is classed as cell-based. The conditions noted are these: Homo sapiens, read-out: Maximal effect compared to untreated controls at the highest tested concentration. For orientation: In ATP-based viability assays light output follows the ATP content of the culture.
Series [3] has as its system CEACAM5 from Macaca fascicularis. The conditions noted are these: cited from earlier work.
Series [4] has as its target T1, CEACAM-5 epitope in FFPE tissues/cells (Homo sapiens, UniProt P06731).
T1 construct: formaldehyde fixed paraffin embedded (FFPE) cancer cell line microarrays (CMAs) and human tumor tissues; endogenous in cells; host or cells: 104 FFPE cancer cell lines (microarray)
T1 sequence (P06731 35-676): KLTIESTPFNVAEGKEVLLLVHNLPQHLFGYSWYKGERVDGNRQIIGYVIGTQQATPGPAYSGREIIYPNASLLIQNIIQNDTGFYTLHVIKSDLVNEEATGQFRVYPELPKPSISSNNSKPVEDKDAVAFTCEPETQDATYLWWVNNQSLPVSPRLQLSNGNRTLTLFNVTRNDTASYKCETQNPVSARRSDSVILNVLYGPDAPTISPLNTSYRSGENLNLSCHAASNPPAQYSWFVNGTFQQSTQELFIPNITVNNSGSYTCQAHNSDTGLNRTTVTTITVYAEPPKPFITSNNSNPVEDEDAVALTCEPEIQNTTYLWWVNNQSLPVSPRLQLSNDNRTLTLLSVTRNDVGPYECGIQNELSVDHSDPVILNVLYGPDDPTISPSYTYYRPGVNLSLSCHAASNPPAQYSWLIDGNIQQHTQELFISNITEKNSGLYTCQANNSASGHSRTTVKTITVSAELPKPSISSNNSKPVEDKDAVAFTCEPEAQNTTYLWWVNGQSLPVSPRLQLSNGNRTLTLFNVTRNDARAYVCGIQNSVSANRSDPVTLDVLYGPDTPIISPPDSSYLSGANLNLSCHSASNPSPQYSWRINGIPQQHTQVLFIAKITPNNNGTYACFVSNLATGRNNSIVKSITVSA
Kind of series: IHC staining on FFPE cancer cell lines versus CEACAM5 mRNA expression. The series is classed as binding. The conditions noted are these: 104 cancer cell lines, CCLE dataset. Here is the method: For the IHC staining with the anti-CEACAM-5 antibody rb8G4, sections of 4 μm from formaldehyde fixed paraffin embedded (FFPE) cancer cell line microarrays (CMAs) and human tumor tissues were mounted on charged slides (SuperFrost Ultra Plus, Thermo Fisher Scientific or TOMO, Matsunami). The staining procedure was performed using a Discovery XT (Roche Diagnostics) staining platform. Following deparaffinization, the sections were heated for epitope retrieval in Tris-EDTA buffer pH 8 (CC1, Roche Diagnostics). The sections were incubated with the primary monoclonal antibody rb8G4 diluted to 0.5 or 0.7 μg/ml in phosphate-buffered saline (PBS) or antibody diluent buffer (DCS). The clone DA1E (rabbit monoclonal IgG, NEB) served as isotype control antibody. The primary antibodies were followed by the HQ anti-rabbit IgG detection kit (Roche Diagnostics). […]
CMAs and the TMA with human organ tissue were stained and scanned with the NanoZoomer (Hamamatsu) with a resolution of 0.46 μm/pixel. […] The scans of the CMAs were analyzed with the image analysis software HALO (Indica Labs, USA). For the determination of the amount of antigen present, positive brown stained area was calculated as percent area of the viable tissue area. Staining (arbitrary units) is calculated as Antibody staining (AU)=% positive tissue area*Average optic density (OD ranges from 0 to 1) of the brown colour. […]

Chain of CEACAM5 from Macaca fascicularis (as listed by the source): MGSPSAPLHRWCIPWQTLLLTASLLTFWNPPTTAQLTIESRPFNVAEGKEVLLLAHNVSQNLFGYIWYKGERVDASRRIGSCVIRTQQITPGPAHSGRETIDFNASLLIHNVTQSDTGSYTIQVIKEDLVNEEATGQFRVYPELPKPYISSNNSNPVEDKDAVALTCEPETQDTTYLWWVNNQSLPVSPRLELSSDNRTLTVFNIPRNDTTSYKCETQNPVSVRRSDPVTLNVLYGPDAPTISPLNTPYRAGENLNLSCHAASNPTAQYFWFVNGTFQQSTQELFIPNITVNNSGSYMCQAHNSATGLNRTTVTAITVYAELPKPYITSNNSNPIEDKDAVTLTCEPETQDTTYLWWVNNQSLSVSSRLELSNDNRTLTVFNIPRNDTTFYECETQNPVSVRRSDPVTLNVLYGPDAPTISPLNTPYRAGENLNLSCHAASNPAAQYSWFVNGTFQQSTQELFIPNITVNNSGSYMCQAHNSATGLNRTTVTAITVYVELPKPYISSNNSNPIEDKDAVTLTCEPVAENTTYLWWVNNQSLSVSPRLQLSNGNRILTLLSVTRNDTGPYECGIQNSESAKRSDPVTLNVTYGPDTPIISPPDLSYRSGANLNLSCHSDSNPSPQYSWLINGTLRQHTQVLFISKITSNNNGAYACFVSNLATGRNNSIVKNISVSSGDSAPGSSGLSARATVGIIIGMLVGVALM
Procedure for MDA-MB-231: Cytotoxicity effects of the ADC on the cancer cell lines were measured by cell viability assays. Cells were seeded in a volume of 90 μL in 96-well plates the day before treatment. Test compounds (ADCs or free payloads) were formulated at 10-fold the starting concentration in cell culture medium. Test compounds were serial diluted (1:4) and 10 μL of each dilution was added to the cells in triplicates. Plates were cultured at 37° C. in a CO2 incubator for six days. For cell viability measurement, Cell Titer-Glo® reagent (Promega™ Corp, Madison, WI) was added to each well, and plates processed according to the manufacturer's instructions. Luminescence signals were measured using a Varioskan plate reader (Thermo Fisher). Luminescence readings were converted to % viability relative to untreated cells. Data was fitted with non-linear regression analysis, using log (inhibitor) vs. response, variable slope, 4-parameter fit equation using GraphPad Prism. Data is shown as % relative cell viability vs. molar compound concentration, error bars indicating standard deviation (SD) of triplicates. Geometric mean values of IC50s derived from multiple experiments were calculated.

Regarding Labetuzumab govitecan, the “stability of the linker structure” value in series [1] was “significant instability”.
Take “SAR408701: Sanofi anti-CEACAM5 ADC: SAR408377 linked to DM4 via SPDB linker”: the side effects result in series [2] is “toxic side effects on several organs and tissues including the cornea of the eye”.
On to `CC[C@@]1(O)C(=O)OCc2c1cc1n(c2=O)Cc2c-1nc1cc(F)c(C)c3c1c2[C@@H](N)CC3` [PAYLOAD, (1S,9S)-1-Amino-9-ethyl-5-fluoro-1,2,3,9,12,15-hexahydro-9-hydroxy-4-methyl-10H,13H-benzo(de)pyrano(3′,4′:6,7)indolizino(1,2-b)quinoline-10,13-dione], for which the Emax with MDA-MB-231 was -92%.
On to “hmn-14: known anti-CEACAM5 antibody as in labetuzumab govitecan; HC SEQ ID NO: 27, LC SEQ ID NO: 28”, for which the “cross-reactivity with CEACAM5 from Macaca fascicularis” value in series [3] is “not cross-reacting”.

B1: rb8G4: human/rabbit chimeric variant of mAb1; HC SEQ ID NO: 29, LC SEQ ID NO: 30 (antibody)
heavy: EVQLQESGPGLVKPSQTLSLTCTVSDGSVSRGGYYLTWIRQHPGKGLEWIGYIYYSGSTYFNPSLRSRVTMSVDTSKNQFSLKLSSVTAADTAVYYCARGIAVAPFDYWGQGTLVTVSSQPKAPSVFPLAPCCGDTPSSTVTLGCLVKGYLPEPVTVTWNSGTLTNGVRTFPSVRQSSGLYSLSSVVSVTSSSQPVTCNVAHPATNTKVDKTVAPSTCSKPTCPPPELLGGPSVFIFPPKPKDTLMISRTPEVTCVVVDVSEDDPEVQFTWYINNEQVRTARPPLREQQFNSTIRVVSTLPIAHEDWLRGKEFKCKVHNKALPAPIEKTISKARGQPLEPKVYTMGPPREELSSRSVSLTCMINGFYPSDISVEWEKNGKAEDNYKTTPAVLDSDGSYFLYSKLSVPTSEWQRGDVFTCSVMHEALHNHYTQKSISRSPGK
light: EIVLTQSPATLSVSPGERATLSCRTSQSVRSNLAWYQQKPGQAPRLLIYAASTRATGIPARFSGSGSGTEFTLTISSLQSEDFAVYYCQQYTNWPFTFGPGTKVDIKRDPVAPSVLLFPPSKEELTTGTATIVCVANKFYPSDITVTWKVDGTTQQSGIENSKTPQSPEDNTYSLSSTLSLTSAQYNSHSVYTCEVVQGSASPIVQSFNRGDC
modifications: HC of rb8G4; LC of rb8G4
For B1, the “Pearson correlation coefficient of IHC staining signal with mRNA expression” value in series [4] is 0.88.
